Data: patent US9074002B2, “PTP1B inhibitors” (Cold Spring Harbor Laboratory, priority 2009, dated 2015)

What was measured:
PTP1B (reduced, active) = biological target: T1, PTP1B (reduced, active) (Homo sapiens, UniProt P18031); test: Direct effect of scFvs/antibodies on PTP1B phosphatase activity (32P-pTyr-RCML substrate); assay type: biochemical; conditions: 32P-labeled pTyr-RCML substrate, FIG. 1
T1 construct: made in house; host or cells: E. coli BL21 (pET19b)
T1 sequence (P18031 3-277 limits assumed): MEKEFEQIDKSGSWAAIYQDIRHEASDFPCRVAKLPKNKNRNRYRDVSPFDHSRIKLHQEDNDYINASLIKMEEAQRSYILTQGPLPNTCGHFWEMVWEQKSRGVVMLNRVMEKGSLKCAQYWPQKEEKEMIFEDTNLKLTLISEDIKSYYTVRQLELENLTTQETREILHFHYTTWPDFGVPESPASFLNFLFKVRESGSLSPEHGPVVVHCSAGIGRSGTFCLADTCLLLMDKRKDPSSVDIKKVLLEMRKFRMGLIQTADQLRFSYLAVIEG
Experimental: Applicant's hypothesis was that scFvs that are able to bind to and stabilize the oxidized conformation of PTP1B in solution would inhibit reactivation by reducing agent, but have no direct inhibitory effect on phosphatase activity in assays in vitro. Activity was measured using ^32P-labeled pTyr-Reduced Carboxamidomethylated and Maleylated Lysozyme as substrate. Applicant established conditions in which wild type PTP1B could be reversibly oxidized in vitro. PTP1B was inactivated following addition of H2O2. […] Applicant validated this approach further, by testing the effects of expressing one of the scFvs (scFv45) as a single chain antibody fragment “intrabody” to PTP1B, using 293T cells as the expression system. This intrabody was expressed transiently and then tested for effects on insulin signaling, focusing initially on the tyrosine phosphorylation status of the beta-subunit of the insulin receptor and insulin receptor substrate (IRS-1).
Reduced carboxamidomethylated and maleylated lysozyme (RCML) was labeled with ^32P using recombinant GST-FER kinase to stoichiometries up to 0.8 (mol ^32P incorporated/mol of protein). This ^32P-Labeled phospho-tyrosyl RCML was used as the substrate in the in-solution phosphatase assay for screening the conformation sensor scFvs. Recombinant PTP1B was reversibly oxidized and transiently inactivated with H2O2 (5× molar excess of the protein). […] Purified bacterially expressed scFvs (100× molar excess of PTP1B) were incubated with PTP after H2O2 treatment and its removal and the effect of individual scFv on stabilizing the reversibly oxidized conformation was assessed by the phosphatase assay under reducing condition.
In order to screen the isolated scFvs for those that inhibit reactivation of PTP1B-OX by reducing agent, but have no direct inhibitory effect on phosphatase activity in assays in vitro, the effect of six scFvs (scFv20, scFv34, scFv45, scFv57, scFv64 and scFv106) on PTP1B activity was determined. PTP1B activity was measured using 32P-labeled pTyr-Reduced Carboxamidomethylated and Maleylated Lysozyme as substrate (FIGS. 1 and 2). Addition of the reducing agent TCEP alone had no substantial effect in PTP1B activity was assessed.

PTP1B-OX = biological target: T2, PTP1B-OX (Homo sapiens, UniProt P18031); test: In vitro binding assay, purified recombinant PTP1B (37 kDa) and purified scFv, Ni-NTA pull down; conditions: purified proteins, scFv in molar excess, 2 hours at 4° C.; FIG. 9
T2 construct: made in house; host or cells: E. coli BL21 (pET19b)
T2 sequence (P18031 3-277): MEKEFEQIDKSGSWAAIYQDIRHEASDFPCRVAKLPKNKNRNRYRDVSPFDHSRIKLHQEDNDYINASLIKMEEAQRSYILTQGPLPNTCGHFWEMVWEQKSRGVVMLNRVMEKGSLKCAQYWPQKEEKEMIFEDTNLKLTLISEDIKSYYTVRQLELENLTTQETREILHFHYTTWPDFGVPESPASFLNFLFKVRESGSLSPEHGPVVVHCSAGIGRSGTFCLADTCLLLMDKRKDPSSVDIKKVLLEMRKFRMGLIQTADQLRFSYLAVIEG
Experimental: (§1) They established conditions in which PTP1B is reversibly oxidized by H2O2 in solution (FIG. 8). An artificial protein substrate RCML, in which tyrosine was phosphorylated with ^32P using recombinant GST-FER kinase was used in this assay to measure the phosphatase activity. Recombinant PTP (37 kDa) was incubated with increasing concentration (50 μM to 100 mM) of H2O2. A quick buffer exchange was done to remove the H2O2 and reducing agent (TCEP) was added to reactivate the enzyme.
(§2) In the in vitro binding assay, purified PTP was reversibly oxidized with […] followed by a quick buffer exchange to remove H2O2 (FIG. 8). Purified scFv was incubated in molar excess with PTP1B-OX or with PTP under reducing condition (with 2 mM TCEP) in binding buffer (20 mM HEPES, pH 7.4, 300 mM NaCl, 0.05% BSA, 0.05% Tween-20 and 10 mM imidazole) for 2 hours at 4° C. Ni-NTA agarose was added and incubated for one hour at 4° C. Protein complex bound to Ni-NTA agarose beads was pulled down and washed (three times, 5 minutes each, at 4° C.) with binding buffer containing 20 mM imidazole to reduce non-specific binding to the beads. The protein complex was eluted from the Ni-NTA agarose beads with 500 mM imidazole (in binding buffer, pH 7.4) for 15 minutes at 4° C. with gentle shaking. The complex was separated by SDS-PAGE and PTP1B was detected with anti-PTP1B antibody (FG6) and scFv was detected with anti-HA antibody [anti-HA (3F10)-HRP, Roche] by immunoblotting. Eight different scFvs (scFvs 20, 21, 24, 28, 45, 48, 57, and 105), expressed and purified from bacterial cultures were tested by this in vitro binding experiment.

[1] = biological target: T3, PTP1B under reducing condition (Homo sapiens, UniProt P18031); test: In vitro binding assay, purified recombinant PTP1B (37 kDa) and purified scFv, Ni-NTA pull down, reducing condition; conditions: with 2 mM TCEP; FIG. 9
T3 construct: made in house; host or cells: E. coli BL21 (pET19b)
T3 sequence (P18031 3-277 limits assumed): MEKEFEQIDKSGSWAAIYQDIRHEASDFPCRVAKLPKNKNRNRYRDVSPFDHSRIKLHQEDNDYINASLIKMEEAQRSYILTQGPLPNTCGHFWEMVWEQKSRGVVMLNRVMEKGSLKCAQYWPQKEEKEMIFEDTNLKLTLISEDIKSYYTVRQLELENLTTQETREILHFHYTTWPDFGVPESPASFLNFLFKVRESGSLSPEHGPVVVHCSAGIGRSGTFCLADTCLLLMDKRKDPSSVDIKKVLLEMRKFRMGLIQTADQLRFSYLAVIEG
Experimental: as §1, §2

endogenous PTP1B-OX = biological target: T4, endogenous PTP1B-OX (Homo sapiens, UniProt P18031); test: Intrabody interaction in 293T cells treated with H2O2 (Ni-NTA pull down / anti-PTP1B immunoprecipitation); assay type: cell-based; conditions: 1 mM H2O2 5 minutes, FIGS. 11, 12
T4 construct: endogenous in cells; host or cells: 293T cells (transfected only with the scFv intrabody)
T4 sequence (P18031 1-435): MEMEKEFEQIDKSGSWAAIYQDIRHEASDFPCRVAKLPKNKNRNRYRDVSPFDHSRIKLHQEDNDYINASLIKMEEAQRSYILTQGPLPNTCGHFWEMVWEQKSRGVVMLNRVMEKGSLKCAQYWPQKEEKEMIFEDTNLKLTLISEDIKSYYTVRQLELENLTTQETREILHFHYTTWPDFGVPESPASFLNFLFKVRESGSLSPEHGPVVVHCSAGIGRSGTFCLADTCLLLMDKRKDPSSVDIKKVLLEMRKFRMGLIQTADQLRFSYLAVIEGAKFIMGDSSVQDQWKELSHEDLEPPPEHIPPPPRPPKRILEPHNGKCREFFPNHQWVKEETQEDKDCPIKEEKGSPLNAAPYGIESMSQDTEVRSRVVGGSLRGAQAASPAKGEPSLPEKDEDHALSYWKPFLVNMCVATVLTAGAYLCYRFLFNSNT
Experimental: One of the positive candidate scFvs (scFv45) was cloned in pcDNA3.2/V5-GW/D-TOPO expression vector and transiently expressed in mammalian cells as stable intracellular antibody (aka intrabody) (FIG. 10). To detect PTP1B-OX and scFv45 interaction in mammalian cells, scFv45 was overexpressed in 293T cells as described herein (See Example 4) and 48 hours post transfection the cells were serum-starved for 16 hours in growth medium (DMEM, low glucose) without serum (FBS), then incubated with 1 mM H2O2 (in growth medium without serum) for 5 minutes at 37° C. or treated with 20 mM NAC (in growth medium without serum) for 1 hour at 37° C. Cells treated with H2O2 were washed twice with cold (4° C.) PBS and lysed in lysis buffer (25 mM HEPES, pH 7.4, 150 mM NaCl, 0.25% Deoxychloate, 1% TritonX-100, 25 mM NaF, 10 mM MgCl2, 1 mM EDTA, 10% Glycerol, 0.5 mM PMSF, 10 mM Benzamidine, protease inhibitor cocktail). Cells treated with NAC were lysed with lysis buffer containing 2 mM TCEP to ensure a post-lysis reducing environment. Interaction between PTP1B and intrabody45 were tested by pulling down the protein complex from 1 mg of total cell lysate with Ni-NTA agarose or by immunoprecipitating PTP with anti-PTP1B (FG6). For the pull down experiment, Ni-NTA agarose beads were incubated with the lysates (both oxidized and reduced) at 4° C. Protein complex bound to the Ni-NTA agarose beads was pulled down and washed three times; first with lysis buffer containing 20 mM imidazole followed by two more washes with wash buffer (PBS, pH 7.4, 20 mM imidazole, 0.05% BSA, 0.05% Tween-20 and protease inhibitors). Applicant used 20 mM imidazole in the wash buffer to reduce the non-specific binding of proteins with the Ni-NTA agarose beads. The complex was eluted with wash buffer containing 500 mM imidazole with gentle shaking at 4° C. and the eluate was mixed with SDS sample buffer with DTT. For the immunoprecipitation experiments, 1 mg of total cell lystates (both oxidized and reduced) was incubated with anti-PTP1B antibody (FG6) at 4° C. The interacting protein complex was immunoprecipitated after incubating the lysate-antibody mixture with protein A/G Sepharose at 4° C. After immunoprecipitation, Sepharose beads were washed three times; first with lysis buffer followed by two more washes with wash buffer (PBS, pH 7.4, 0.05% BSA, 0.05% Tween-20 and protease inhibitors). The Sepharose beads were then heated at 90° C. in 2×SDS sample buffer with DTT. Proteins from the pulled down or immunoprecipitated complex were separated by SDS-PAGE. PTP was detected with anti-PTP1B antibody (FG6) and the intrabodies were detected with anti-HA (3F10)-HRP antibody [anti-HA (3F10)-HRP, Roche] by immunoblotting.
In the initial in vitro phosphatase screening assay using reversibly oxidized (with H2O2) recombinant PTP1B, Applicant found four different PTP1B-OX specific scFvs (scFv45, scFv57, scFv64 and scFv106) from the initial pool of 12 different scFvs. […] Applicant has also shown that scFv45, expressed as an intrabody in mammalian cells, can bind to endogenous PTP1B-OX but not endogenous PTP under reducing conditions. Further assessment was carried out to identify additional PTP1B-OX-specific intrabodies. Additional scFvs have been subcloned in pcDNA3.2/V5-GW/D-TOPO mammalian expression vector (FIG. 10) from their respective phagemid constructs. After transient overexpression of these scFvs as intrabodies in 293T cells, the interaction between endogenous PTP1B and these intrabodies in both H2O2-treated cells and cells was observed under reducing condition (treated with NAC and lysed with lysis buffer containing TCEP). […] All can be used in the methods and compositions described herein. Additional scFvs, such as some or all of the 137 selected individual scFvs from the library, can be similarly tested by in vitro screening and/or by binding assay in mammalian cells.

| Molecule | direct effect on PTP1B activity (PTP1B (reduced, active)) | binding to PTP1B-OX in vitro (PTP1B-OX) | binding to PTP1B under reducing condition in vitro [1] | binding of intrabody to endogenous PTP1B-OX (endogenous PTP1B-OX) |
| --- | --- | --- | --- | --- |
| scFv20: scFv, SEQ ID NO: 53 (protein) scFv: MKKTAIAIAVALAGFATVAQAALTQPSSVSANLGGIVEITCSGSSGSYGWYQQKSPGSAPVTVIYYNDKRPSNIPSRFSGSGSGSTNTLTIAGVRAEDEAVYYCGNEDSSGAAFGAGTTLTVLGQSSRSSAVTLDESGGGLQTPGGGLSLVCKASGFTFSDYDMFWVRQAPSKGLEFVAAITSSGTGTKYGAAVKGRATISKDNGQRTVRLQLNSLGAEDTGTYYCARSDADSTTWSAGEIDAWGHGTEVIVSSTSGQAGQHHHHHHGAYPYDVPDYAS | no direct inhibition of PTP activity | no significant binding | no significant binding | – |
| scFv34: scFv, SEQ ID NO: 67 and 163 (protein) scFv: MKKTAIAIAVALAGFATVAQAALTQPSSVSANPGGTVEITCSGSSGSHGWYQQKSPGSAPVTVIYDNTNRPSDIPSRFSGSLSGSTATLTITGVQAEDEAVYYCGSFDTNSDSGYVGIFGARTTLTVLGQSSRSSTETLDDSGGGLQTPGGALSLVCNASGFTFISYDMFWVRQAPGKGLEFVTQINSAGSYTNYGSAVNGRATISRNDGQITVRLQLNDLTADDTGIYFCAESASGYDYSGSDAGDINAWGHGTEVVVSSTSGQAGQHHHHHHGAYPYDVPDYAS | no direct inhibition of PTP activity | – | – | bound weakly to PTP1B-OX |
